Source: US20100041032A1

Target: Nodal, endogenous in mouse F9 Cripto-/- cells (mouse) (UniProt P43021)
Experiment: cell-based or functional assay

Sequence of UniProt P43021 (P43021 245-354 limits assumed): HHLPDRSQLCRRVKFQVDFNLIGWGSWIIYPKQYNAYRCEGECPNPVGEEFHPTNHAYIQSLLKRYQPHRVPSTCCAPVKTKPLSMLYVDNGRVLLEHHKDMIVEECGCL

luciferase activity, FAST transcription factor dependent (n2)7-luciferase reporter assay in F9 Cripto-/- cells, fold increase compared with control: 4 to 6 fold
Substance: human Cripto-1 (protein encoded by TDGF1) (from UniProt P13385 31-150)
